From paper PMC4689616 (Nature cell biology, 2015)
Values belong to the binder of their own block, whether it stands above or below them.

Tests used:
TTC7B(9-843) = molecular target: T1, TTC7B(9-843) (UniProt Q86TV6 9-843); test: SEC
T1 sequence: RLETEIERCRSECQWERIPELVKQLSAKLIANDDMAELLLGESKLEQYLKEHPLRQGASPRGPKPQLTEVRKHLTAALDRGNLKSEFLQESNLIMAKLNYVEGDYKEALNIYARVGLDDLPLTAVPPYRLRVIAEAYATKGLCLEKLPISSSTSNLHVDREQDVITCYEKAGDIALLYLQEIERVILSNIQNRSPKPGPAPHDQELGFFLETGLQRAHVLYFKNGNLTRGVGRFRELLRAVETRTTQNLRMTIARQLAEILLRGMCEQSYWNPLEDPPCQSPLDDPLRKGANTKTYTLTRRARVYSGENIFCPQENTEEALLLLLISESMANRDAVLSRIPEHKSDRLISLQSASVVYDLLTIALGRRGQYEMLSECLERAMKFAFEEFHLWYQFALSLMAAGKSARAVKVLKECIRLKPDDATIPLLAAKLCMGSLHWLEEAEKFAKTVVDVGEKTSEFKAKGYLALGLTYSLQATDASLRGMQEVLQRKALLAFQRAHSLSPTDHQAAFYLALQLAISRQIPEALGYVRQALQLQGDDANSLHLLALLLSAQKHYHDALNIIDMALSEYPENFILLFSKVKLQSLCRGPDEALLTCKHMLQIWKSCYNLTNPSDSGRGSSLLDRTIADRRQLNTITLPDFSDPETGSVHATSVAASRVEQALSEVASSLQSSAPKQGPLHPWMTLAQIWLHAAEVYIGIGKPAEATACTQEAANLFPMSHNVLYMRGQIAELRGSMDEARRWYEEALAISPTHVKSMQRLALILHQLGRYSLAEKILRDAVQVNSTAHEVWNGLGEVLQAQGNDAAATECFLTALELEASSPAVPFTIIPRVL

[1] = molecular target: 3xFLAG-PI4KIIIα (wild-type) (UniProt P42356-1 1-2102); test: pull-down

binding result (TTC7B(9-843)): binds
B1: FAM126A(2-308) (domain or fragment)
chain: FTSEKGVVEEWLSEFKTLPETSLPNYATNLKDKSSLVSSLYKVIQEPQSELLEPVCHQLFEFYRSGEEQLLQFTLQFLPELIWCYLAVSASRNVHSSGCIEALLLGVYNLEIVDKQGHTKVLSFTIPSLSKPSVYHEPSSIGSMALTESALSQHGLSKVVYSGPHPQREMLTAQNRFEVLTFLLLCYNAALTYMPSVSLQSLCQICSRICVCGYPRQHVRKYKGISSRIPVSSGFMVQMLTGIYFAFYNGEWDLAQKALDDIIYRAQLELYPEPLLVANAIKASLPHGPMKSNKEGTRCIQVEITPT

binding result [1]: binds
B2: GST-FAM126A-N/TTC7B dimer (complex)
chain 1: B1 chain
chain 2: T1 sequence
